# Data published in the nanobody polyreactivity screen of Harvey et al. (2022).
# Test: yeast display, Sf9 membrane polyspecificity reagent, FACS + sequencing; frameworks hold sequencing errors
# Procedure, shortened: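 A nanobody's polyreactivity label depends on the gate it was sorted from. Yeast display cells were stained with 10% biotinylated, detergent-solubilized Sf9 membrane reagent for 1 hour at 4 °C, enriched on streptavidin microbeads and sorted by FACS. The low and high (top ~1%) gates were set on anti-HA fluorescence for expression and streptavidin fluorescence for reagent binding.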
row,Sequence,polyreactivity (PSR sort gate)
1,QDQLVESGGGLVQAGGSLRLSCAASGSTYYYAMGWYRQAPGKERELVAAIRSGSRTYADSVKGRFTISRDNAKNTVYLQMNSLKPEDTAVYYCAATTWRHNFYSWGQGTQVTVSS,high polyreactivity
2,QVQLVESGGGIVQAGGSLRLSSAASGFTFDSNAMGWYRQPPGKERELVAAISASGDSTYYADSVKGRFTISRDNAKNTVYLQMNSLKPEDTAVYYCAADSYYGGWRFDHWGQGTQVTVSS,low polyreactivity
3,QVQLVESGGGLVQAGGSLRLSCAASGLTFYYYAMGWYRQAPGKERELVAAMSIGGSTDYADSVKGRFTISRDNAKNTVYLQMNSLKPEDTAVYYCNVDDNSEYDYWGQGTQVTVSS,low polyreactivity
4,QVQLVESGGGLVQAGGSLRLSCASSGFTFPFYAMGWYRQAPGKESELVAAISWSGGSTYYADSVKGRFTISRDNAKNTVYLQMNSLKPEDTAVYYCAAEYISSPLGYDYWGQGTQVTVSS,high polyreactivity
5,QVQLEESGGGLVQAGGSLRLSCAASGGIFYGYAMGWNRQAPGIERELVAAISDSGGSTYYADSVKGRFTISRDNAKNTVFLQLNSLNPEDTAVYYCATDARVGGYVSEGDFWGQGTQVTVSW,low polyreactivity
6,QVQLVDSGGGLVQAGGSLSLSCGASGIIFVSNAMGWYRQAPGKERELVATINWSDDSTYYADSVKGRFTISRDNAKNTVYLQMNSLKPEDTAVYYCYWRQGTQVTVSS,low polyreactivity
7,QVQLVESGGGLVQAGGSLRLSCAASGLIFSGSAMGWYRQAPGKERELVAAITWSGGSTYYADSVKGRFTISRDNAKNSVYLQMNSQKPEDTAVYYCNAKFYQISRYGYWGQGTQVTVSS,high polyreactivity
8,QVQLVESGGGLVQAGGSLRLSCAASGRIFHYYAMGWYRQAPGKERELVAAINKSGGRTYYADSVKGRFTISRDNAKNTVYLQMNSLKPEDTAVYYCAAQDGYWGQGTQVTVSS,high polyreactivity
9,QVLLVESGGGLVQAGGSLRLICDDSGFIFTYYAMGLYRQAPVTEREFVAAIRASGGSTYYSYSVKGRFTISRDKAQNTVYLQMNSLKPEETAVYYCAARYRQRLRSTSYDYWGQGTQVTVSS,high polyreactivity
10,QVQLVESGGGLDQAGGSLRLTCAPYGLISDRNAIGWYRQAPGKERDLVASIRSGGSTYYADSVKGRFTFSRDNAKNTVYLEMNSLKPEDTAVYYCAAGGGHTPVSYYLVPYMDYWGQGTQVTVAS,low polyreactivity
11,HVQLVESAGGLVQAGGSLRLSCAASGSILPRYAKGWYRQAPGKERELVAAISWSGGNTYYADSVKGRFTISRDNAKNTVYFQMNSLTPEDTAVSYSAARQYDWVIQGSRVRPVHYDYWGQGTQVNVSS,high polyreactivity
12,QVQLVESGGGLVQAGGSLRLICAASGSTFTGYAMGWYRQAPGKERELVAAISISGGRTFYADSVKGRFTISRDNAKNTVYLQMNSLKPEDTAVYYCAAFLRGSKYSFDYWGQGTQVTVSS,high polyreactivity
13,QVQLVESGGGLVQAGGSLRLSCAASGSTLGGYAMGWYRQAPGKERELVAAISGSRGSTYYADSVKGRFTISRDNAKNTVYLQMTSLKPEDTAVYYCAAGSYWVQYQYDYWGQGTQVTVSS,low polyreactivity
14,QVQLVDSGGGLVQAGGSLRLSCAASGRIFRYNTMGWYRQAPGKEREFVAAITQRGVNTYYADSVKGRFTISRDNAKNTVYLQMNRLKPEDTAVYYCNAKRYSYWIYRAYDYWGQGTQVTVSS,low polyreactivity
15,QVQLVESGGGLVQAGGSLRLSCAASGSTFRQYAMGWYRQAPGKERELVAAIRGRDGSTYYADSVKGGFTISRDNAKYTVYLQMNSLKPEDSAVYYCNVVARGVSPGYDYWGQGTQVTVSS,high polyreactivity
16,QVQLVESGGGLVQAGGSLRLSCAASGFIFVIYAKGWYRQAPGKERELVARISFRSGRTYYADSVKGRFTISRDNAKNTVYLQMNSLKPEDTAVYYCNAVLYGQYKYDYWGQGTQVTVSS,high polyreactivity
17,QVQLVESGGGLVQAGGSLRLSCAASGSTFTGYTMGWYRQAPGKERELVAAITYRGGSTYYADSVKGRFTISRDNAKITDYLQMNSLIPEDTAVYYCAAVPEYYEYSPYDYWGQGTQVTVSS,low polyreactivity
18,QVQLVESGGGLVQAGGSLRLSCAASGSTFHYYAMGWYRQAPGKERELVAAISSGGRTNYADSVKGRFTISRDNAKNTVYLQMNSLKPEDTAVYYCAARWSYTKGEFDYWGQGTQGTVSS,high polyreactivity
19,QVQLVESGGGLVQAGGSLRLSCAASGRIFGYYAMGWYIQAPGKERELVAAINWRGGNTNYADSVKGRFTISRDNAKNTVYLQMNSLKPEDTAVYYCNAQVLVRPIQGEYGYWGQGTQVTVSS,low polyreactivity
20,QVQLVESGGGLVQAGGSLRLSCAASGSNFVYNAMGWYRQAPGKERELVAAISGSGDSTYYADSVKGRFTISRDNAKNTVYLQMNSLKPEDTAVYYCAARMSTADFYKGDYWGQGTQVTVSS,low polyreactivity
21,QVQLVESGGGLVQAGGSLRLSCAASGRTFWWNAMGWYRQAPGKERELVAVISYSGGSTYYADSVKGRFTISRDNAKNTVYLQMNSLKPEDTAVYYCAAEAYTYWDTIYDYLGQGTQVTVSS,high polyreactivity
22,QVQLVESGVGLVQAGGSLRLSCAASGSIFQGYAMGWYRQAPGKERELVAGITSSGGRTRYADSLKGRFTISRDNAKNTVYLQMNSLKPEDTAVYSCAADYVRHIGYNYWGQGNQVTVSS,high polyreactivity

row,Sequence,polyreactivity (PSR sort gate)
1,QVQLVESGGGLVQAGGSLRLSCAASGSTFRRYAMGWYRQAPGKERELVAAITSTDVNTYYADSVKGRFTISRDNAKNTVYFQMNSLKPEDTAVYYCAAVYLGYYGVSDMEYWGQGTQVTVSS,high polyreactivity
2,QLQLVESGGGLVQAGGSLRLSCAPSGYTFYLYAMGWYRQAPGKARELDAAISNRGGSTYYADSVKGRFTISRDNAKNTVYLQMKSLKPEDTAFYYCAATVGKAGGRYYDRRYYWGQGTQVTVSS,high polyreactivity
3,QVQLVESGVGLVQAGGSLRLSCAASGITFYGYAMGWYRQAPGKDRELVAAINWGGTGTYYADSVKGRFTISRDNAKNTVYFQMNSLKPEDTAVYYCNKAGDPIADPTAGKRQFDYWGQGTQVTVSS,low polyreactivity
4,QVQLVESGGGLVQAGGSLRLSCAASGSTFPRNDMGWYRQAPGKERELVAAISRGGSTNYADSVKGRFTISRDNAKNTVYLQMNSLKPEDTAVYYCAAQIIESAYGMDYWGQGTQVTVSS,low polyreactivity
5,QVQLVESGGGLVQAGGSLRLSCAASGSIFWQNAMGWYRQAPGKERELVAAISRNGGSTNYADSVKGRFTISRDNAKNTVYLQMNSLKPEDTAVYYCAAVGTVSRTVGYNYWGQGTQVTVSS,high polyreactivity
6,QVQLVESGGGLVQAGRSHRLSCAASGIIFYKYAMGWYRQAPVKERELVAAISGTGGSTYYADSVKGRFTISRDNAKNTVYLQMNSVTAEDPAVYYCAATHYSFSWGYDYWGQGTQGTVSS,high polyreactivity
7,QVQLVESGGGLVQAGGSLRLSCAASGSTFVKNTMGWYRQAPGKERELVAAIRSSGGSTYYADSVKGRFTISRDNAKNTVYLQMNSLKPEDTAVYYCNKVLQASRSKYYYWGQGTQVTVSS,high polyreactivity
8,QVQHVESGGGLVQAGGSLRLSCAASGRIMARNAMGWYRQAPGKERELVADISYSGGRTYYADSVKGRFTISRDNSKNTVYFQMNRLKQEDTAVYYCADSRSSRTYHDDYWGQGTQVTVSS,high polyreactivity
9,QVQLLESGGGLVLAGGSLRLSCAASGRIFNLYAMGWYRQAPGKERELVAAITDIGSSTYYADSVKGRFTISRDNAKNTVYLQMNSLKPEDTAVYYCNAVVKSSSRGSIAHPGYDYWGQGTQVTVSS,high polyreactivity
10,QVQLVESGGGLVQAGGSLRLSCAASGITFTSYAMGWYRQAPGKERELVAAISSSGVRTYYADSVKGRFTISRDYAKNTVYLQMKSLKPEDTAVYYCATRRRVLYGYDYWGQGTQVTVSS,high polyreactivity
11,QVQLVESGGGLVQAGGSLRLSCAASGRILFGYAMGWYRQAPGKERELVADITSTGSTNYADSVKGRFTISRDNAKNTVYLQMNSLKPEDTAVYYCNARRESYYQRYRVDYWGQGTQVNVSS,low polyreactivity
12,QVQLVESGGGLDQAGGSLRLSCAASGSTFPYYAMGWYRQAPGKERELVARISYRGGRTYYADSVKGRFTISRDNAKNTVYLQMNSLKAEDTAVYYCAADRWVYYHSTRYDYWGQGTQVTVSS,high polyreactivity
13,QVQLVESGGGLVQAGGSLRLSCAASGFTFLAYAMGWYRQAPGKERELGAAISKSGGSTYYADSVKGRFTISRDNAKITVYLQMNSLKPEDTAVYYCNAGRRIKFYGSYDYWGQGTQVTVSS,high polyreactivity
14,QVQLVESGGGLVQAGGSLRLSCAASGRIFYPNVMGWYRQAPGKERELVAAITWSSGSTYYADSVKGRFTISRDNAKNTVYLQMNSLKPEDTAVYYCAAGLRWHRKFYYWGQGTQVTVSS,high polyreactivity
15,QVQLVESGGGLVQAGGSLRLSCAASGRIFDVYAMGWYRQAPGKERELVATITGSGGGTYYADSVKGRFTISRDNAKNPVYLQMNSLKPEDTADYYCAADYYPTYAYYVSNVGYDYWGQGTQVTVSS,low polyreactivity
16,QVQLVESGGGLVQAGGSLGLSCAASGFTFHKYAMGWYRQAPGKERELVAAITSSGGSTYYADSVKGRFTISRDNAKNTVYLQMNSLKPEDTAVYYCAVGFYYFSSWYSYDYWGQGTQVTVSS,high polyreactivity
17,QVQLVESGARLVQAGGSLRLSCAASGSILGGNAMGWYRQPPGKERELVAAITFSGGGTYYADSVKGRFTISRDNAKNTVYLQMNSLKPEDTAVYYCAADIAGYTYEFDYWGQGTQLTVSS,low polyreactivity
18,QVQLVESVGGIVQAGGSLRLSCAASGRTFYVYAMGWYRQARGKERELVASIRWRGSTYYADSVKGRFTISRDNAKNTVYLKMNSLKPEDTAVYYCAARYPYELGFDYWGQGTQVTVSS,low polyreactivity
19,QVQLVESGGCLVQAGGSLRISCAASGRIFSRNAMGWYRQAPGKEREWVAAITRSSGTTYYADSVKGRFTISRDNAKNTVYLQMNSLKPEDTAVYYCAAGHTYGGYPRPSDYWGQGTQVTVSS,low polyreactivity
20,QVQLVESGGGLVQAGGSLRLSCAASGSIFTPYAMGWYRQAPGKERELVAAISWRGGNTYYADSVKGRFTISRDNAKNTFYLQMNSLKPEETAVYYCAAEQYSVYETGSYDYWGQGTQVTVSS,low polyreactivity
21,QVQLVESGGGLVQAGGSLRLSCAASGRTFGYYDMGWYRPAPGKERELVAAITWIDGRTYYADSVKGRFTISRDNAKNTVYLQMNSLKPEDTAVYYCAKRHKAGFYRTYRYGYWGQGTQVTVSS,high polyreactivity
